# Source: patent US20250340636A1 (Memorial Sloan Kettering, published 2025)
# T1: human CHL-1 (residues 25-1096 with a C-terminal 10xHis tag) (human, UniProt O00533 25-1096)
# T1 construct: range 25-1096; also called L1CAM-2; L1CAM2
# T1 sequence: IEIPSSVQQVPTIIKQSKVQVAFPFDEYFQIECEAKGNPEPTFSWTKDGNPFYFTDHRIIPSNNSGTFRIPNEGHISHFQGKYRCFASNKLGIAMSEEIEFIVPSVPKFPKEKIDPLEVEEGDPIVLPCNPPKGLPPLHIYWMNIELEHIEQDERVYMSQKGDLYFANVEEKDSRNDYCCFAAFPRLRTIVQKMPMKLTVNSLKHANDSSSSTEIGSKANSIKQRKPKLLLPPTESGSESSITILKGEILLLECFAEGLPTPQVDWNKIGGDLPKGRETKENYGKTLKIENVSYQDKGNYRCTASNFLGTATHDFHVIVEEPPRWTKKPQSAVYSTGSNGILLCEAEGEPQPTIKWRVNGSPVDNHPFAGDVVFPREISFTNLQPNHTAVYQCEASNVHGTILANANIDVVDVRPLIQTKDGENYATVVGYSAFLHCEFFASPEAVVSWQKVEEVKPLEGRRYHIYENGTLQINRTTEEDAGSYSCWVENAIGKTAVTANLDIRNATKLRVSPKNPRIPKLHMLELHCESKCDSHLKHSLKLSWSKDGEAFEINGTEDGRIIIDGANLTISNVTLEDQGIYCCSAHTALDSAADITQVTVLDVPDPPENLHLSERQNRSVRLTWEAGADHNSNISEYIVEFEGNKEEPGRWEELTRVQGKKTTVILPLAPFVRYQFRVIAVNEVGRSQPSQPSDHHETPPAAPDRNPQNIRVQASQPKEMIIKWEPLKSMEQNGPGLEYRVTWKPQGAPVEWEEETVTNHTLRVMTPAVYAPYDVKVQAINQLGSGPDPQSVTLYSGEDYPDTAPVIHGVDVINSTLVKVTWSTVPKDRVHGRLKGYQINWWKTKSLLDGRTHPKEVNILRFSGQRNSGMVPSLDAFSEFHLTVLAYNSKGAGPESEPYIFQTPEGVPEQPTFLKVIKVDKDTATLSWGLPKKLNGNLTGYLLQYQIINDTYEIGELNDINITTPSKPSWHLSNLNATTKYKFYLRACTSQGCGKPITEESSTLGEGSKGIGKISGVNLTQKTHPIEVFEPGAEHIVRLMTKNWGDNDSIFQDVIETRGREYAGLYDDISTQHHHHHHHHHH
# B1: TDI-Y-005 (antibody, human IgG1, kappa, V domains shown)
# VH: EVQMVESGGGLVQPGGSLRLSCAAPGFIFSSYNMNWVRQAPGKGLEWVSYISSSSSTTYYADSVKGRFTISRDNAKNSLYLQMNSLRDEDTAVYYCASLYSGYDYYYYYGMDVWGQGTTVTVSS
# VL: DIVMTQTPLSSPVSLGQPASISCRSSQSLVHSDGNTYLSWLQQRPGQPPRVLIYKISKRFSGVPDRFSGSGAGTDFTLKISRVEAEDVGVYYCMQATQFPFTFGPGTKVDIKR
# notes: Human IgG1, kappa; also called human 14A10 mAb; fully human 14A10 mAb
# Experiments:
# [1] = molecular target: T2, soluble mouse L1CAM (monomer), His-tagged (mouse, UniProt P11627 20-1123, limits assumed); assay: summary table; soluble mouse protein (row printed as 'mouse CD40 (monomer)', read as mouse L1CAM)
# T2 construct: read as mouse
# Experimental: (§1) Cross-reactivity to Mouse L1CAM. Affinity to mouse L1CAM was measured by BLI using an Octet Red96e instrument. […] The data was prepared by reference well subtraction, and response curves were globally fit to a 1:1 Langmuir binding model.
# [2] = molecular target: T1, human CHL-1 (residues 25-1096 with a …); assay: ELISA, plates coated with human CHL-1
# Text: Selectivity. […] These proteins are other members of the L1 family of cell adhesion proteins and have between 49% and 55% sequence similarity with L1CAM in the extracellular portion. […] Positive control antibodies were included for each homolog. […] Epitope. The extracellular portion of L1CAM contains six immunoglobulin-like (Ig) domains and five fibronectin type III (FN) domains. To narrow down the binding region of the development candidate mAbs, truncated versions of human L1CAM protein (Ig domain, residues 21-605; FN domain, residues 606-1116; each with a C-terminal 6×His tag) were recombinantly produced, followed by a BLI experiment to test binding at 50 and 100 nM. […] 6×His tag is set forth in SEQ ID NO: 316.
# [3] = molecular target: T2, soluble mouse L1CAM (monomer), …; assay: BLI (Octet Red96e), His-tagged mouse L1CAM on Ni-NTA biosensors, mAb as analyte, 1:1 fit
# Experimental: as §1
# human L1CAM on cells [4] = molecular target: T3, human L1CAM on cells (human, UniProt P32004 20-1257); assay: summary table; binding to cells overexpressing human L1CAM (HEK293T)
# T3 construct: Overexpressed on stably transfected HEK293T cells or endogenous on MCF-7 and MDA-MB-231 cells; also called HEK293T-hL1CAM
# Experimental: (§2) Binding to L1CAM on Cells. […] Cells were then incubated with an AlexaFluor 647 goat anti-human Fc secondary antibody. After washing, the stained cells were analyzed by flow cytometry.
# (§3) The binding curves for each antibody and cell line normalized to secondary antibody only staining (MFI ratio) are shown in FIGS. 14A-14C. EC50 values were determined by non-linear regression (Table 70). […] It is possible that differences in the conformation and oligomerization of L1CAM, depending on the surface expression level, contributed to the binding pattern. […] An avidity effect due to high levels of L1CAM surface expression may have contributed to the strong binding observed in this experiment.
# human L1CAM on cells [5] = molecular target: T3, human L1CAM on cells; assay: flow cytometry, HEK293T-hL1CAM cells, AlexaFluor 647 anti-human Fc secondary
# Experimental: as §2, §3
# [6] = molecular target: T4, extracellular domain of human L1CAM (isoform 1) fused to a poly-histidine tag via its carboxy terminus (human, UniProt P32004 20-1120); assay: BLI (Octet Red96e), His-tagged human L1CAM on Ni-NTA biosensors, mAb as analyte, 1:1 fit
# T4 construct: Bought (Creative Biomart); also called L1CAM-His; huL1CAM protein
# Experimental: Binding to L1CAM in Solution. Affinity to human L1CAM was measured by BLI using an Octet Red96e instrument. […] The data was prepared by reference well subtraction, and response curves were globally fit to a 1:1 Langmuir binding model.
# human L1CAM on cells [7] = molecular target: T3, human L1CAM on cells; assay: flow cytometry, MCF-7 cells, AlexaFluor 647 anti-human Fc secondary
# Experimental: as §2, §3
# T2 sequence (P11627 20-1123 limits assumed): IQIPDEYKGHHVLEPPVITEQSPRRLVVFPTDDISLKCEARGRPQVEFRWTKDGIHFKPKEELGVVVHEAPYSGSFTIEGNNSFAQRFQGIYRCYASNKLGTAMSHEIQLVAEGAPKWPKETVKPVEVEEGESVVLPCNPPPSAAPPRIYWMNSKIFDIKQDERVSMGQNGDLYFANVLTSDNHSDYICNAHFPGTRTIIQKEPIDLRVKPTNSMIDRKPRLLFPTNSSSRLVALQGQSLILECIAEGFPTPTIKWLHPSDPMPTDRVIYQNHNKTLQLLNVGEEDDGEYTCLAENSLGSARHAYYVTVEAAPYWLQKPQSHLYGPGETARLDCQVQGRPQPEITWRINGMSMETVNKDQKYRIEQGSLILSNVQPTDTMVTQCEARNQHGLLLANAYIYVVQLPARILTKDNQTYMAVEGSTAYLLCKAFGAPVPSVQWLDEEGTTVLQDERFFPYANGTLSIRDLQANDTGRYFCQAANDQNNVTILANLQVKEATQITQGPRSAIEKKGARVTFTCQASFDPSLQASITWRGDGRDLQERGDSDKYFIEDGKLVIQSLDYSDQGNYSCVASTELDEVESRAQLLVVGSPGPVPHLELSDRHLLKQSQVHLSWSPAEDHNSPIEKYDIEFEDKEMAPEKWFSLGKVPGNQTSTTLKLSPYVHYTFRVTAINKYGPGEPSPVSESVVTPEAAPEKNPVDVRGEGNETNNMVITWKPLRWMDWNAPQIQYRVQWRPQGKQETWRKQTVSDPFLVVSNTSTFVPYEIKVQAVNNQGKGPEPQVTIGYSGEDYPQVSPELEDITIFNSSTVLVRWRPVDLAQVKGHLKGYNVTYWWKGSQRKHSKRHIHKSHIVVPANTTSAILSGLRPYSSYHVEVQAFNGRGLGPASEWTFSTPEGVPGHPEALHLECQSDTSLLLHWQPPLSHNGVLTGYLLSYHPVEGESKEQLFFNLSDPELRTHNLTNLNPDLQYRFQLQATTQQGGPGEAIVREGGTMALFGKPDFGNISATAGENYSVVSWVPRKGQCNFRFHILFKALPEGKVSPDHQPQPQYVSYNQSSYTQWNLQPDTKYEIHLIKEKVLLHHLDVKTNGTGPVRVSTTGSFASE
# T3 sequence (P32004 20-1257): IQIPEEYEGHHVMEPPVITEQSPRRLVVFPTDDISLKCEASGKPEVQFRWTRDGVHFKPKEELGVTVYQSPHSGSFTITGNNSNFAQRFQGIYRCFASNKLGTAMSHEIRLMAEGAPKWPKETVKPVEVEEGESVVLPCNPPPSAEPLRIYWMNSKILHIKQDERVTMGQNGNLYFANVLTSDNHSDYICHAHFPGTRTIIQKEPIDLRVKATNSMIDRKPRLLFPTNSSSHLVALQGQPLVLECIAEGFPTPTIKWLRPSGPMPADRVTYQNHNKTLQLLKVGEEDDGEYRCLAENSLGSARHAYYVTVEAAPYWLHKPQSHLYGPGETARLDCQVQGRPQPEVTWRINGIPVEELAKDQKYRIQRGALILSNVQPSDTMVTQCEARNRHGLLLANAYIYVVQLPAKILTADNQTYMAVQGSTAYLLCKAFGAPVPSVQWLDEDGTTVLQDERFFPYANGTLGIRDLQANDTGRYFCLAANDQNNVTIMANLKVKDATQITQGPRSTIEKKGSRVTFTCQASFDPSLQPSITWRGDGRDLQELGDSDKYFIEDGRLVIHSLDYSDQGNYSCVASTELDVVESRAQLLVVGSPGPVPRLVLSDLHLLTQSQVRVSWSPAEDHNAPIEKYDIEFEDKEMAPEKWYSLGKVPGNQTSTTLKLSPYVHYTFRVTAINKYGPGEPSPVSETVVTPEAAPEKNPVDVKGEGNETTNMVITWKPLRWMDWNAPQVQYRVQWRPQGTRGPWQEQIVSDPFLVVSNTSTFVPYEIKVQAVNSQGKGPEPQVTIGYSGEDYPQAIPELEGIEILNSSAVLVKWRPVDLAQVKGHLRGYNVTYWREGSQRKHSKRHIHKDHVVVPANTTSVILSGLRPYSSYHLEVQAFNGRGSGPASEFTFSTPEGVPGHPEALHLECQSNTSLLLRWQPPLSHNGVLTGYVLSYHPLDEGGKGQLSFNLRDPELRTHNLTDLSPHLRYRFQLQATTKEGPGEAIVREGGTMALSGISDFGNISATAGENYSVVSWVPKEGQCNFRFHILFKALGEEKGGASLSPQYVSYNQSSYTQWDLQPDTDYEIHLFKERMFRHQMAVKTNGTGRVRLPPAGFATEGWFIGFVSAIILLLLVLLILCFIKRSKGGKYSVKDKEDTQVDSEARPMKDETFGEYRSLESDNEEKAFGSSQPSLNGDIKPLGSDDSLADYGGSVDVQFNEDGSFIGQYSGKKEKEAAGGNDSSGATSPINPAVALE
# T4 sequence (P32004 20-1120): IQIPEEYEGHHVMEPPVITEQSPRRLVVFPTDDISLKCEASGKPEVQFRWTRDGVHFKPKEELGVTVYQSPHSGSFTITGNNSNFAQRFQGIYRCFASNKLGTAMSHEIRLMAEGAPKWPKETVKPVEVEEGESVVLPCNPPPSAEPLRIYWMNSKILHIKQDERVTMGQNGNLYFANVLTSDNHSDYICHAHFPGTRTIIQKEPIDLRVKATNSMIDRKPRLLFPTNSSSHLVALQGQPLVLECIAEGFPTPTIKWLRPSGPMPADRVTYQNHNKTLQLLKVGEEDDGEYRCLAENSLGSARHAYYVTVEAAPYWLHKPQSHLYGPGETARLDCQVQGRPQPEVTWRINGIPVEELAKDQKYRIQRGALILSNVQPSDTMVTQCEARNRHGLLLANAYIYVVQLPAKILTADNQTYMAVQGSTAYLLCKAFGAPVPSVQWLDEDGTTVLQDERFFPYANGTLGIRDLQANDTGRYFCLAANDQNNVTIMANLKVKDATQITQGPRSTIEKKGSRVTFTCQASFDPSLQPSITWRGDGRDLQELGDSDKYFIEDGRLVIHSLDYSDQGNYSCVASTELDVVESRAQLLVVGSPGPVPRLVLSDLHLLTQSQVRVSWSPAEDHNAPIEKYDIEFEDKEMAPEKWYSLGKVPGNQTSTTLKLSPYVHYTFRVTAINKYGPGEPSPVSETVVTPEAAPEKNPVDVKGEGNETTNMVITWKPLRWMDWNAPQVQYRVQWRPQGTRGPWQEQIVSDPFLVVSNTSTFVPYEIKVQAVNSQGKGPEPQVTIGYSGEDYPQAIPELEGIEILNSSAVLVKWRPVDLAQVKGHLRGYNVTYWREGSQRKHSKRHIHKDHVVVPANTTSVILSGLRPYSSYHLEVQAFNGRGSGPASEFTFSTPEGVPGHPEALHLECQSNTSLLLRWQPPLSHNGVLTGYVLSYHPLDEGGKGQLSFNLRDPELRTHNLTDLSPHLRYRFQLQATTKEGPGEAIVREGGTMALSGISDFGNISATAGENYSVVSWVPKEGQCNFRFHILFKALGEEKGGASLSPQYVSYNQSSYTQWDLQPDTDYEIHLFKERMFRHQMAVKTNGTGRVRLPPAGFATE
binder,measurement,setting,value
B1,Kd,[1],34 nM
same,koff,[1],0.0011 s⁻¹
same,kon,[1],31000 M⁻¹ s⁻¹
same,binding result,[2],no binding (tested: 1 µM)
same,Kd,[3],34 nM
same,koff,[3],0.0011 s⁻¹
same,kon,[3],31000 M⁻¹ s⁻¹
same,EC50,human L1CAM on cells [4],2 nM
same,EC50,human L1CAM on cells [5],2 nM
same,Kd,[6],4.3 nM
same,koff,[6],0.00014 s⁻¹
same,kon,[6],33000 M⁻¹ s⁻¹
same,EC50,human L1CAM on cells [7],2.5 nM
